In PMC12329532 (2025):

Tests used:
Assay in all cases: FP
[1] = molecular target: N-terminally His6-tagged human IDO1 (indoleamine 2,3-dioxygenase 1), purified apo-IDO1 (human, UniProt P14902 1-403, Alexa Fluor 488 on Cys groups (in the fluorescence polarisation assay only))
[2] = molecular target: His6-IDO1 K101D, purified (human, UniProt P14902 1-403, K101D, Alexa Fluor 488 on Cys groups)
[3] = molecular target: His6-IDO1 K101A, purified (human, UniProt P14902 1-403, K101A, Alexa Fluor 488 on Cys groups)

Chain of N-terminally His6-tagged human IDO1 (indoleamine 2,3-dioxygenase 1), purified apo-IDO1 (P14902 whole entry): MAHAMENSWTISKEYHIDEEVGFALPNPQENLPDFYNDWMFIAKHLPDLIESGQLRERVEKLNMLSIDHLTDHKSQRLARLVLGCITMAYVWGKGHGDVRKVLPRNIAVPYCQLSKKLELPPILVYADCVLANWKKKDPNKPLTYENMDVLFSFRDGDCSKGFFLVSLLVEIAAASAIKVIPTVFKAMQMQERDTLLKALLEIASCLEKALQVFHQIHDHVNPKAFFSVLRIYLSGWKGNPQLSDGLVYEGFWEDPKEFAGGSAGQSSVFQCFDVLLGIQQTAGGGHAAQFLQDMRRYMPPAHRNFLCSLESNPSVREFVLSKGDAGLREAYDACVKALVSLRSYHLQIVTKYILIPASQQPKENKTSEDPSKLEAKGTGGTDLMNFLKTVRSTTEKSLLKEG

B1: human recombinant TC-GAPDH (GAPDH with a tetra-Cys insertion sequence near its heme binding site), wild type, purified (enzyme)
chain: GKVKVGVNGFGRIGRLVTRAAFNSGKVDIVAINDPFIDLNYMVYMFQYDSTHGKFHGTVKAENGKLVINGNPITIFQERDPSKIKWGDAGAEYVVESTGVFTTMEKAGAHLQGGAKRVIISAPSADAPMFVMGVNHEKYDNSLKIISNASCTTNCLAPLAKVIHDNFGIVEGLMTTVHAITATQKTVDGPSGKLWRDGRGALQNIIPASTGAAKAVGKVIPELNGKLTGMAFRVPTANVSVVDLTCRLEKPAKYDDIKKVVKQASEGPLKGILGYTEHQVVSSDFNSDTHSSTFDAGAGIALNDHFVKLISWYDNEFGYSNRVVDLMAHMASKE
Question: With B1 as the binder, how does the Kd [1] read?
Answer: Its Kd is 1.79 µM.

Question: And the Kd [2]?
Answer: The Kd was 4.45 µM.

Question: What about the Kd [3] of the same binder?
Answer: The Kd was 4.66 µM.
